Results from the nanobody polyreactivity screen of Harvey et al. (2022).

Test: yeast display, Sf9 membrane polyspecificity reagent, FACS + sequencing; frameworks hold sequencing errors
How it was run: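 Nanobodies from a synthetic yeast display library (Saccharomyces cerevisiae BJ5465), induced 36–48 hours with galactose, were stained 1 hour at 4 °C with 10% biotinylated, detergent-solubilized Sf9 membrane reagent, enriched on streptavidin microbeads, then FACS-sorted. Anti-HA (expression) and streptavidin (reagent binding) fluorescence set low and high (top ~1%) gates. Polyreactivity labels come from the gate of origin. Genes were colony-PCR amplified, MiSeq 2 × 250 sequenced and filtered by CDR length.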

Sequence	polyreactivity (PSR sort gate)
QVQLVESVGGLVQAGGSLRLSCAAAGRTFTLYAMGWYRQATGKERELVAAIRWSGSSTYSADSVKGRFTISRDNAKNTVYLQMNSLKPEDTAVYACDARAGRYDRYGYWGQGTQVSVSS	high polyreactivity
QVQLVESGGGLVQAGGSLRLSCAASGRIFGLYAMGWYRQAPGKERELVAAIRSSGGSTYYADSVKGRFTISRDNAQNTVYLQMISQKPDDTAVYYCAADGDEDGEYWGQGTQVTVSS	low polyreactivity
QVQLVESGAGLVQAGGSLLLSSAPSASTFVSYAMGWYRQAPGKERELVAAISSGGGSTYYADSVKGRFTISRDNAKNTVYLQMNILKPEDTAVYYCAARGYAYRAQYGYWGQGTQVTVSS	high polyreactivity
QVQLVESGGGLVQAGGSLRLSCAASGFTFEGNAMGWYRQAPGKERELVAAISSNGGRTYYADSVKGRFTISRDNAKNTVYLQMNSLKPEDTAVYYCNALRAYSGPDYDYYHGRRYDYWGQGTQVTVSS	low polyreactivity
QVQLVESGGGLVQAGGSLRLSGDASGSIFVWYDMGWYRQAPGKERELVATISLSGVSTYYADSVKGRFTISRDNAKKTVYLQMNSLKPEDNAVYYCAADFVEQGEDDYCGQGTQVTVSS	low polyreactivity
QVQLVETGVGLVQAGGSLRLSCAASGSTFPGYAMGWYRQAPGKERELVAAISASGGSTYYADSVKGRFTISRDIAKNTVYLQMNSLKPEDTEVYYCAKVLSRGASAHDYWGLGTQVTVSS	low polyreactivity
QVQLVESGGGLVQAGGSLRLSCAASGRIFLGYTMGWYRQAPGKERELVAAISYSGGSTYYADSVKGRFTISRDYAKNTVYFQMNSLKPEDTAVYYCNKVYSIRGYWGQGTQVTVSS	high polyreactivity
QVQLVESGGGLVQAGGRLRLICAASGFTFGGNVMGWYRQAPGKERELVAAISSSGGSTYYADSVKGRFTISRDNAKNTVYLQMNSLKPEDTAVYYCAKYAVFYQYRYYHWGQGTQVTVSS	high polyreactivity
QVQLVESGGGLVQAGGSLSLICAASGRTFGPNTMGWYRQAPGKERELVAAITGSGGSTYYADSVKGRFTISRDNAKNTVYLQMNSLKPEDTAVYYCAKSVRYPASDYWGQGTQVTVSS	low polyreactivity
QVQLVESGGGLVQAGGSLRLSCAASGNTFVSNAMGWYRPAPGKERELVAAINSGGSTNYADSVKGRFTISRDNAKNTVYLQMNSLKPEDTAVYYCNKYYDYPQRYWMDYWGQGTQVTVSS	low polyreactivity
QVQLVESVGGLVQAGGRLRLSCAASGFIFYEYAMGWYRQAPGKERELDPAITSGGSTDYADSVKGLFTISRDNAKNTVYLQMNSLKPEDTAVYYCNADLFTGYYWYNYCGQGTQVTVSS	low polyreactivity
QVQLVDSGGGLVQAGGSLRLSCAASGSTCYYYNMGWYRQSPWKERELVAAISFIGGSTYYADSVKGRFTISRDNAKYTVYLQMNSLTPEDTAVFYCAAEFYRWGSLSFSNDYWGQGTQVTVSS	low polyreactivity
QVQLVESGGGLVQAGGSLRLSCAASGRTLASNAMGWYRQAPGKERELVAAINRGGSTYYADSVKGRFTISRDNAKNTVYLQMNSLKPEDTAVYSCAVDRYRYPFDYWGQGTQVTVSS	low polyreactivity
QVQLVESVGGLVQAGGSLRLSCAASGSIFGVYVMGWYRQAPGKERELVAAITRGASTNYADSVKGRFTISRDNAKNTVYLQMKSLKPEDTAVYYCAAEWWEEYGYYDDNDYWGQGTQVTVSS	low polyreactivity
QVQLVESGGGLVQAGGSLRLICAASGRTFRGYAMGWYRQAPGKERELVAAISVTGSSTNYADSVKGRFTISRDNAKNTVYLQMNSLKPEDTAVYYCNAKRVRYSLSYDYWGQGTQVTVSS	high polyreactivity
QVQLVESGGGLVQAGGSLRLSCAASGSTFSANDMGWYRQAPGKEREFDAAITTSDDSTYYADSVKGRFTISRDNAKNTVYLQMNSVKPEDTAVYYCNAYSGYSFFGLGFFYKYDYWGQGTQVTVSS	low polyreactivity
QVQLVESGGGLVQAGGSLRLSCAASGRILRPYAMGWYRQAPGKERELDAGITVRGGTTYYADSVKGRFTISRDNAKNTVYLQMNILKPEDTAVYYCAATDIHYGPSYIPYWYGYCGQGTQVTVSS	high polyreactivity
QVQLVESGGGLVKAGGSLRLSCAASGFTLSRYTKGWYRQAPGKEWELVAAISWSGGSTYYADSVKGRFTISRDNAKNTVYLQMNSLKPEDSAVYYCAARYHYYGLYTSGDYYWGQGTQVTVSS	high polyreactivity
QVHLVESGGGLVQAGRSLRLSCAASGLTFGTNPMGWYRQAPGKERELVAAITWRGGSTSYADSVKGRFTISRDNAKNTVYLQMNSLKPEDTAVYYCAVRLRYPGNTFYDWGQGTQVTVSS	high polyreactivity
QVQLVESGGGLVQAGGSLRLSCAASGIISSVYAMGWYRQAPGKERELVAAISGSGGSTYYADSVKGRFTISRDNAKNTVYLQMNSLKPEDTAVYYCAKGYQYQGNSYGYWGQGTQVTVSS	low polyreactivity
QVQLVESGGGLVQAGGSLRISCAASGGIFDTYVMGWYRQAPGKERELVAAISSSGSTTYADSVKGRFTISRDNAKNTVYLQMNSLKPEDTAVYYCNADYSTIWRYDYWGQGTQVTVSS	low polyreactivity
QVQLVESGGGLVQAGGSLRLSCAASGFILGVYAMGWYRQAPGKERELVAAITFSGASTYYADSVKGRFTISRDNAKNTVYLQMNSLKPEDTAVYYCNKTSAYYRYEYWGQGTQVTVSS	low polyreactivity

Sequence	polyreactivity (PSR sort gate)
QVQLQESGGGLVQAGGSLRLSCAASGTIFWLWAMGRYCQAPGQDRELVASISSGGTTYHADSVKGRFTISRDKAKNPVYRQMNSVKPEDTAVYYRAAFYVATAKLGYWGQGSQVTVSS	low polyreactivity
QVQLVESGGGLVQAGGSLRLSCAASGSTFRTYAMGWYRQAPGKERELVAAISVSGGRTYYADSVKGRFTISRDNAKKTVYLQMNSLKPEDTAVYYCAARQYRYELEYWGQGTQVTVSS	low polyreactivity
QVQLVESGGGLVQAGGSLRLSCAASGRTFRRNVMGWYRQAPGKERELVAAISSGANTNYADSVKGRFTISRDNAKNTVYLQMNSLKPEDTAVYYCNARWQEPLKYDYWGQGTQVTVSS	low polyreactivity
QVQLEESGGGLVQAGGTLRLRCAASVIIYDDKTMGWYRQAPGKEMELVAPISSSRGSTYYADSVKGRFTISRDNAKNTVYLQMNSLKPEDTAVYYCAAAVYYTYPYIVFRNYPEFDYWGQGTQVSVSS	low polyreactivity
QVQLVESGGGLVQAGGSLRLSCAASGRIFYSYAMGWSRQAPGKERELVAAISFSVGSTYYADSVKGRFTISRDNAKNSVYLQMNSLKPEDTAVYYCAASLGFPGYEYWGQGTQVTVSS	low polyreactivity
QVQLVESVGGLVQAGGSLRLSCAASGRTVGGNAMGWYRQAPGKERELVAAINRSGGTTYYADSVKGRFTISRDNAKNTVYLQMNSLKPEDTAVYYCAARRTVSATRMGYWGQGTQVTVSS	high polyreactivity
QVQLVESGGGLVQAGGSLRLSCAASGRIFVGYAMGWYRQAPGKERELVAAITKSGGRTYYADSVKGRFTISRDNAKNTVYLQMNSLKPEDTAVYYCAVLNSKWNEYDYWGQGNQVTVSS	high polyreactivity
QVQLVESGVGLVQAGGSLRLSCAASGFILGQYTMGWYRQAPGKERELVAAISSSGSTNYADSVKGRFTISRDNAKNTVYLQMNSLKPEDTAVYYCNGDGNPDFYYSFYDEYDYWGQGTQVTVSS	low polyreactivity
QVQLVESGGGLVQAGGSLRLSCAASGFIFGLNAMGWYRPAPGKERELVAAIRSASSTNYADSVKGRFTISRDNAKNTVYLQMNSLKPEDTAVYYCAAEYVTYQQGFWGYDYWGQGTQVTVSS	low polyreactivity
QVQLVESGGGLVQAGGSLRLSCAASGSTFQTDTMGWYRQAPGKERELVASITWRGGRTYYADSVKGRFTISRDNAKNTVYLQMNSLKPEDTAVYYCAAVTFSYDGYDYWGQGTQVTVSS	low polyreactivity
QVQLVESGGGLVQAGGSLRLSCAASGSTSRTYAMGWYRQAPGQEMELVAAISSSGGRTYYADSVKGRFTISRDTAKNTVYLEMNSLKPEDTAVYYCNARTYSYRGYNYWGQGTQVTVSS	high polyreactivity
QVQLVESGGGLVQAGGSLRLSCAASGSIFAYYTMGWYRQAPGKERELVARISSRGGRTYYADSVKGRFTISRDNAKNTVYLQMNSLKPEDTAVYYCNAGYSYRKYDYWGQGTQVTVSS	high polyreactivity
QVQLVESGGGLVQAGGSLRLSCAASGSTVESNVMGWYRQAPGKERELVAAISYSGGSTYIADSVKGRFTISRDNAKNTVYLQLNSLNPEDTAVLYSNALTSGYLYTFHRLWYPMYYWGQGTQGTVSS	high polyreactivity
QVQLVESGGGLVQAGGSLRLSCAASGTTFEVNAMGWYRQAPGKERELVATITRSGGSTYYADSVKGRFTISRDNAKNTVYLQMNSLKPEDTAVYYCNALWELKWGQGTQVTVSS	low polyreactivity
QVQLVESGGGLVQAGGSLRLSCAASGSILPYYAMGWYRQAPGKERELVAAISDSGGSTYYADSVKGRFTISRDNSKNTVYLQMNILKPEDTAVYYCNAVVRSTAHGYWGQGTQVTVSS	high polyreactivity
QVQLVESGGGLVQAGGRLRLSCAASGSIFSYNAMGWYRQAPGKEREVVATISWSGGSTYYADSVKGPFTISRDYAKNTVFLQMNSLKPEDTGGYSCAARKYGQRYRRDYWGQGTQVTVSS	low polyreactivity
QVQLVESGGGLVQARGSLRLSCAASGSTFPYYTMGWYRQAHWKERELVAAITTRGGGTYYADSVKGRFTISRDNAKNTVYLKMNSLKPEDTAVYYCAAKTIYDTRGIRHYYWGKGTQVTVSS	high polyreactivity
QVQLVESGGGLVQAGGSLRLSCAASGFIFVRYAMGWYRQAPGTERELVASITRSGGSTYYADSVKGRFTISRDNAKNTVYLQLNSLKPEDSAVYYCAASYYRSRGSTYGYWGQGTQVTVSS	high polyreactivity
QVQLVESVGGLVQAGVSLRLSSAASGSTLKQYAMGWFRQSPGKERELVGAITRSGSSTYYADSVKGRFTISRDNAKNTVYLPMNRLKREDTAVYYCDVGCWKGDYYWGLGTQVTVSS	high polyreactivity
QVQLVESGGGLVQAGGSLRLSCAASGSIFYGYAMGWYRQAPGKERELVAAITWSGGSTYYADSVKGRFTISRDNAKNTVYLQINSLKPEDTAVYYCNAVSTRFRVRTSDYWGQGTQVTVSS	high polyreactivity
QVQLVESGGGLVQAGGSLRLSCAASGSIYTQNAMGWYRQAPGKERELVADISRGSTYYADSVKGRFTISRDNAKNTVYLQMNSLKPEDTAVYYCAADDIAHPSFVSTVDVGMDYWGQGTQVTVSS	low polyreactivity
